This note sets out measurements from patent US20260274955A1 (JANUX THERAPEUTICS, published 2026).

No end group written: not given here.

One assay concerns the target T1, anti-CD28 Fab (SEQ ID NOs: 202, 203).
T1 construct: biotinylated and captured on neutravidin coated plates in the phage ELISA
The assay is described as follows: phage binding ELISA on captured Fab, competitor CD28 antigen. (In general: An ELISA detects its analyte on a solid surface through an enzyme-linked reagent.)
T1 sequence (VH, as listed by the source, chain 1 of 2): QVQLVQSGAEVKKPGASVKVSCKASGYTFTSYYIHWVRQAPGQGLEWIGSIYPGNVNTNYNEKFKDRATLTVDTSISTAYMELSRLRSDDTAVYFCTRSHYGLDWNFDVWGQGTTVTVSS
T1 sequence (VL, as listed by the source, chain 2 of 2): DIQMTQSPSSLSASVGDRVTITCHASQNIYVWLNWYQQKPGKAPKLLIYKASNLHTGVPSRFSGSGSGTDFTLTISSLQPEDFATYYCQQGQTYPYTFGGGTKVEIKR
Description: (§1) After panning, phage infected bacteria were plated out and colonies picked into 96 well blocks. Clonal phage was then amplified and separated from bacterial cells via centrifugation.
(§2) Clonal phage were harvested as crude supernatants and screened via standard ELISAs. […] Prior to the addition of clonal phage, wells were incubated with blocking buffer and CD28 antigen or blocking buffer alone. Without washing or aspirating, clonal phage supernatants were then added to the wells and incubated for a short time. Wells were then washed followed by detection of bound phage using a horse radish conjugated anti-M13 antibody. Clonal phage of interest were then sent for sequence analysis.
Regarding TCSAGASNKLSLCL [Phage-931], the “Anti-CD28 Fab signal in the presence of CD28” value (shortened to “Anti-CD28 Fab signal”) is 0.06. Same read-out and setting: as for TCSAGATYTWSKCF [Phage-939], the figure is 0.06; as for TCSAGATYTWPWCF [Phage-941], 0.07. On the same count and under the same terms, as for SCAAGAMYSWPTCL [Phage-935], the figure is 0.08; as for TCAAGATYAWPYCV [Phage-929], 0.09; as for RCSAGFHYPLSLCL [Phage-933], 0.06. TCAAGANWEWPWCF [Phage-928]: the “Anti-CD28 Fab signal” value is 0.08. Take MCAAGFHYPWPACL [Phage-927]: the “Anti-CD28 Fab signal” value came to 0.1. Consider MCSAGANWPWPLCF [Phage-932], for which the “Anti-CD28 Fab signal” value was found to be 0.07. Regarding TCAAGAAYPWPLCF [Phage-930], the “Anti-CD28 Fab signal” value is 0.11. As to NCSAGATYPWPLCL [Phage-934], the “Anti-CD28 Fab signal” value was determined as 0.07.

The next assay addresses T2, anti-CD28 Fab (SEQ ID NOs: 202, 203).
T2 construct: biotinylated when captured in the phage ELISAs
Briefly: binding ELISA, peptide captured, anti-CD28 Fab titrated.
T2 sequence (VH, as listed by the source, chain 1 of 2): as the sequence (VH, as listed by the source, chain 1 of 2) above
T2 sequence (VL, as listed by the source, chain 2 of 2): as the sequence (VL, as listed by the source, chain 2 of 2) above
On to TCAAGATWSWPACF (cysteine pairing not given here; also: biotinylated, site not given here) [Peptide-94], for which the EC50 (commonly the concentration at which the effect is half-maximal) amounted to 4.5 nM.

TCAAGAAWGWPLCF (cysteine pairing not given here; also: biotinylated, site not given here) [Peptide-95] had an EC50 of 5.6 nM. In the case of TCSAGAHYPWPICL (cysteine pairing not given here; also: biotinylated, site not given here) [Peptide-102], the response was half-maximal at 10.6 nM (EC50). For SCSAGAHYPWPQCF (cysteine pairing not given here; also: biotinylated, site not given here) [Peptide-100], the EC50 came out at 19 nM.

In the case of TCSAGAAYSWPACF (cysteine pairing not given here; also: biotinylated, site not given here) [Peptide-98], a half-maximal effect (EC50) was put at 24.3 nM.

As to TCSAGATYEWPRCL (cysteine pairing not given here; also: biotinylated, site not given here) [Peptide-101], the EC50 turned out to be 12.8 nM. Compared with the last molecule, the EC50 is about 1.9-fold lower.

TCAAGATYLWPTCL (cysteine pairing not given here; also: biotinylated, site not given here) [Peptide-105] came in with a half-maximal effective concentration (EC50) of 20.5 nM. This EC50 is about 1.6-fold higher than that of the molecule before. For LCAAGATYPWPLCL (cysteine pairing not given here; also: biotinylated, site not given here) [Peptide-96], the EC50 came out at 5.6 nM.

Turning to LCAAGATYPWPTCL (cysteine pairing not given here; also: biotinylated, site not given here) [Peptide-99], a half-maximal response (EC50) required 25.8 nM. This EC50 is about 4.6-fold higher than that of the molecule before.

For TCAAGAHYPWPACL (cysteine pairing not given here; also: biotinylated, site not given here) [Peptide-106], the EC50 was 4.2 nM. Take SCSAGAAYYWPWCL (cysteine pairing not given here; also: biotinylated, site not given here) [Peptide-103]: the EC50 was 112 nM. Same read-out and setting: the same measure for TCSAGATYTWPKCF (cysteine pairing not given here; also: biotinylated, site not given here) [Peptide-93]: 15.7 nM; for TCSAGATWAWPLCF (cysteine pairing not given here; also: biotinylated, site not given here) [Peptide-104]: 15.6 nM.

The target in the next assay is anti-CD28 Fab (SEQ ID NOs: 202, 203). The assay is described as follows: phage binding ELISA; biotinylated anti-CD28 Fab captured on neutravidin plate, clonal phage supernatant, anti-M13-HRP detection.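 Note: before crude clonal phage supernatants were added, wells were preincubated with CD28 antigen in blocking buffer or with blocking buffer only.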
Target sequence in this assay (VH, as listed by the source, chain 1 of 2): as the sequence (VH, as listed by the source, chain 1 of 2) above
Target sequence in this assay (VL, as listed by the source, chain 2 of 2): as the sequence (VL, as listed by the source, chain 2 of 2) above
Description: as §1, §2
For the molecule TCAAGATYDWPSCL [Phage-1247], the “Anti-CD28 Fab (SEQ ID NOs: 202, 203) signal” value amounted to 0.71. Turning to GCAAGAEYNWPTCL [Phage-1251], the “Anti-CD28 Fab (SEQ ID NOs: 202, 203) signal” value was 0.69. Consider WCSAVFSYQWPVCL [Phage-1254], for which the “Anti-CD28 Fab (SEQ ID NOs: 202, 203) signal” value was 0.61. Turning to TCAAGAQLEWPWCF [Phage-1250], the “Anti-CD28 Fab (SEQ ID NOs: 202, 203) signal” value was 0.7. Turning to GCAAGFHYTLSTCL [Phage-1259], the “Anti-CD28 Fab (SEQ ID NOs: 202, 203) signal” value worked out at 0.42. Turning to ICAAGAGWPWPWCL [Phage-1245], the “Anti-CD28 Fab (SEQ ID NOs: 202, 203) signal” value was 0.75. For DCWWDSPYHWRVCL [Phage-1256], the “Anti-CD28 Fab (SEQ ID NOs: 202, 203) signal” value is 0.57. For PCSAGATYAWPYCL [Phage-1249], the “Anti-CD28 Fab (SEQ ID NOs: 202, 203) signal” value worked out at 0.71. On the same count and under the same terms, the same measure for TCAAGAAYTWPHCF [Phage-1252]: 0.69; for TCSAGATYKWPMCF [Phage-1243]: 0.77; for SCSAGASYAWPMCI [Phage-1255]: 0.59. The same measure, in the same setting: the same measure for ECSAGAMWGWPACF [Phage-1246]: 0.73. For TCAAGAVWQWPTCF [Phage-1248], the “Anti-CD28 Fab (SEQ ID NOs: 202, 203) signal” value turned out to be 0.71. Take TCSAGATYGWPACF [Phage-1244]: the “Anti-CD28 Fab (SEQ ID NOs: 202, 203) signal” value was 0.76. On to SCAAGAGYGWPQCL [Phage-1257], for which the “Anti-CD28 Fab (SEQ ID NOs: 202, 203) signal” value came out at 0.55. For the molecule SCGGGFHYSWPLCF [Phage-1258], the “Anti-CD28 Fab (SEQ ID NOs: 202, 203) signal” value amounted to 0.55. Same read-out and setting: as for TCSAGAQWEWPACL [Phage-1253], the figure is 0.67.

The target in a further assay is T1, anti-CD28 Fab (SEQ ID NOs: 202, 203). The assay is described as follows: phage binding ELISA on captured biotinylated Fab.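 Note: clonal phage supernatants added to wells preincubated with CD28 antigen or blocking buffer only, bound phage detected by ELISA with horseradish-conjugated anti-M13 antibody.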
Description: as §1, §2
For TCSAGASNKLSLCL [Phage-931], the “Anti-CD28 Fab (SEQ ID NOs: 202, 203) signal” value is 2.18. For the molecule TCSAGATYTWSKCF [Phage-939], the “Anti-CD28 Fab (SEQ ID NOs: 202, 203) signal” value stood at 2.15. Take TCSAGATYTWPWCF [Phage-941]: the “Anti-CD28 Fab (SEQ ID NOs: 202, 203) signal” value was determined as 2.14.

For SCAAGAMYSWPTCL [Phage-935], the “Anti-CD28 Fab (SEQ ID NOs: 202, 203) signal” value is 2.16. Regarding TCAAGATYAWPYCV [Phage-929], the “Anti-CD28 Fab (SEQ ID NOs: 202, 203) signal” value was 2.21.

In the case of RCSAGFHYPLSLCL [Phage-933], the “Anti-CD28 Fab (SEQ ID NOs: 202, 203) signal” value was determined as 2.18. Turning to TCAAGANWEWPWCF [Phage-928], the “Anti-CD28 Fab (SEQ ID NOs: 202, 203) signal” value was found to be 2.22. MCAAGFHYPWPACL [Phage-927]: the “Anti-CD28 Fab (SEQ ID NOs: 202, 203) signal” value turned out to be 2.23. On the same count and under the same terms, the same measure for MCSAGANWPWPLCF [Phage-932]: 2.18; for TCAAGAAYPWPLCF [Phage-930]: 2.18. NCSAGATYPWPLCL [Phage-934]: the “Anti-CD28 Fab (SEQ ID NOs: 202, 203) signal” value stood at 2.17.

In another assay the target is anti-CD28 Fab (SEQ ID NOs: 202, 203). Briefly: phage binding ELISA; captured anti-CD28 Fab pre-incubated with CD28 antigen as competitor, anti-M13-HRP detection.
Target sequence in this assay (VH, as listed by the source, chain 1 of 2): as the sequence (VH, as listed by the source, chain 1 of 2) above
Target sequence in this assay (VL, as listed by the source, chain 2 of 2): as the sequence (VL, as listed by the source, chain 2 of 2) above
Description: as §1, §2
Turning to TCAAGATYDWPSCL [Phage-1247], the “Anti-CD28 Fab signal” value worked out at 0.08.

Consider GCAAGAEYNWPTCL [Phage-1251], for which the “Anti-CD28 Fab signal” value is 0.64. On to WCSAVFSYQWPVCL [Phage-1254], for which the “Anti-CD28 Fab signal” value was found to be 0.06. On the same count and under the same terms, as for TCAAGAQLEWPWCF [Phage-1250], the figure is 0.07. On the same count and under the same terms, as for GCAAGFHYTLSTCL [Phage-1259], the figure is 0.05; as for ICAAGAGWPWPWCL [Phage-1245], 0.1. Consider DCWWDSPYHWRVCL [Phage-1256], for which the “Anti-CD28 Fab signal” value turned out to be 0.07. For PCSAGATYAWPYCL [Phage-1249], the “Anti-CD28 Fab signal” value worked out at 0.09. For the molecule TCAAGAAYTWPHCF [Phage-1252], the “Anti-CD28 Fab signal” value amounted to 0.11.

TCSAGATYKWPMCF [Phage-1243]: the “Anti-CD28 Fab signal” value is 0.07.

For SCSAGASYAWPMCI [Phage-1255], the “Anti-CD28 Fab signal” value is 0.06. On the same count and under the same terms, as for ECSAGAMWGWPACF [Phage-1246], the figure is 0.09. For the molecule TCAAGAVWQWPTCF [Phage-1248], the “Anti-CD28 Fab signal” value amounted to 0.06. Same read-out and setting: as for TCSAGATYGWPACF [Phage-1244], the figure is 0.07; as for SCAAGAGYGWPQCL [Phage-1257], 0.13; as for SCGGGFHYSWPLCF [Phage-1258], 0.15. Same read-out and setting: as for TCSAGAQWEWPACL [Phage-1253], the figure is 0.08.
